These results are taken from IntAct's records for PubMed 15558030.

First the molecules themselves.
B1: Proto-oncogene vav (Homo sapiens), P15498 (parent)
chain: MELWRQCTHWLIQCRVLPPSHRVTWDGAQVCELAQALRDGVLLCQLLNNLLPHAINLREVNLRPQMSQFLCLKNIRTFLSTCCEKFGLKRSELFEAFDLFDVQDFGKVIYTLSALSWTPIAQNRGIMPFPTEEESVGDEDIYSGLSDQIDDTVEEDEDLYDCVENEEAEGDEIYEDLMRSEPVSMPPKMTEYDKRCCCLREIQQTEEKYTDTLGSIQQHFLKPLQRFLKPQDIEIIFINIEDLLRVHTHFLKEMKEALGTPGAANLYQVFIKYKERFLVYGRYCSQVESASKHLDRVAAAREDVQMKLEECSQRANNGRFTLRDLLMVPMQRVLKYHLLLQELVKHTQEAMEKENLRLALDAMRDLAQCVNEVKRDNETLRQITNFQLSIENLDQSLAHYGRPKIDGELKITSVERRSKMDRYAFLLDKALLICKRRGDSYDLKDFVNLHSFQVRDDSSGDRDNKKWSHMFLLIEDQGAQGYELFFKTRELKKKWMEQFEMAISNIYPENATANGHDFQMFSFEETTSCKACQMLLRGTFYQGYRCHRCRASAHKECLGRVPPCGRHGQDFPGTMKKDKLHRRAQDKKRNELGLPKMEVFQEYYGLPPPPGAIGPFLRLNPGDIVELTKAEAEQNWWEGRNTSTNEIGWFPCNRVKPYVHGPPQDLSVHLWYAGPMERAGAESILANRSDGTFLVRQRVKDAAEFAISIKYNVEVKHIKIMTAEGLYRITEKKAFRGLTELVEFYQQNSLKDCFKSLDTTLQFPFKEPEKRTISRPAVGSTKYFGTAKARYDFCARDRSELSLKEGDIIKILNKKGQQGWWRGEIYGRVGWFPANYVEEDYSEYC
partner: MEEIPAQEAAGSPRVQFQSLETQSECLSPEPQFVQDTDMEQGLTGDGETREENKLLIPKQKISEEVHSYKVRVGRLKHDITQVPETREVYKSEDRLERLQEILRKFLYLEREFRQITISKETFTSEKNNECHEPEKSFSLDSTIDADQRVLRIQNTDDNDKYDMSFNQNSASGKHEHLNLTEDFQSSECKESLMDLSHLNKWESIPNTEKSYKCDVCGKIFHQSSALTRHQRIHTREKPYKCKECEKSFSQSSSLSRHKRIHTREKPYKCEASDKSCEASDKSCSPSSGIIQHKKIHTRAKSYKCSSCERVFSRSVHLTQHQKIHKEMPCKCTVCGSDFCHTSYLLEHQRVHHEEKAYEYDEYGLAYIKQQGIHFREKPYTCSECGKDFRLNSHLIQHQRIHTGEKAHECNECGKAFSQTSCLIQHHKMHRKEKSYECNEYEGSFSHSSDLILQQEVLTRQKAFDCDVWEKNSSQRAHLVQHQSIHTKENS

Variants of B1 are the subject of this test. Particulars: with zn655_human ZNF655, Q8N720.
As to Y836F, the “effect of a mutation on the interaction” value is reported as “decreasing interaction”.

As for P833L, the “effect of a mutation on the interaction” value is “decreasing interaction”.
